Laboratory results from IntAct's records for PubMed 18552200.

B1: DDB1- and CUL4-associated factor homolog 1 (Arabidopsis thaliana (Mouse-ear cress)), Q9M086 (parent)
chain: MDGQEHAEVPNSMVEDDQSVVAAEAIAELANSTGEPNPEEGEEQSVEDELIAKAQKLMEDITSVANNPNPNILHALSQLLESQESLFLEENGHFSNARGSHNSGKLCILIRENDEFFELISSTFLSENSYSTAVKAASARLLMNCSLTWMYPHVFDDAVTENFKNWVMEEAVKFPGEDSAKKEASDFEMLKTYSTGLLALSLASRGQIVEDVLTSGLSAKLMHYLRVRVLKEPSTSRIHTTETKHVSLKTKEEGRSRVRKIVDTVEGDHVLETDSGREMGQTDVQPDGEFEIDGRDVFNVSGVVDCKIKPGDDNSVRDDPSRHRLNRSKSRGRGRVHEGAPDTEVLLASPRLGRLLVRDRDLSKISDGRNAEDVTVCLGKMKSGIMEIEREDNDECFQGCIIGTKNITDLVKRAVGAAETEARAAHAPDDAAKAAGDAAAELVKTAALEEFKSSGSEEAAVSAATRAAITVIDAAEVSRNPTCVTSDQTTDVSEVSLPDIESLAQLQEKYCIQCLEILGEYVEVLGPVLHEKGVDVCIVLLERTSQLDDRSTVSPLLPDVMKLICALAAHRKFAAMFVERRGILKLLAVPRVSETFYGLSSCLYTIGSLQGIMERVCALPLVVIHQVVKLAIELLDCSQDQARKNSALFFAAAFVFRAILDAFDAQDSLQKLLAILKDAASVRTGANTDRSAPEVMTSSEKQMAFHTCFALRQYFRAHLLLLVDSIRPSRISRGGVPSSMKPNIRAAYKPLDISNEAVDAIFLQLQKDRRLGPTFVKAQWPAVNNFLASSGHVTMLELCQTPPVDRYLHDLLQYAFGVLHIVTSIPDGRKAIAHATLSNNRAGIAVILDAANISNSIVDPEIIQPALNVLINLVCPPPSLSNKPPLAQNHQPVPGQATTRPSTDVAVGTQSTGNAPQTPVAPASSGLVGDRRIFLGAGTGSAGLAAKLEQVYRQAREAVRGNDGIKILLKLLQPRIYVNPPATPDCLRALACRVLLGLARDDTIAQILTKLEVGKSLSELIRDSGGQSSGTDQGRWQAELAQVALELIGIVTNSGHATTLTASDAATPTLRRIERAAIAAATPITYDSKELLLLIHEHLQASGLGDTASALLKEAQLTPLPSSASPSSIAYSTTQEMSTPLAQEQWPSGRANSGFFTSKPKVCAHDEDPNSRSNAALSAKKKHLASSTLEMPTPVAQQQWPSGRANCGFCPSIPKINARDEDPSSRGNAAPSAKKKQLTFSPSFSSQSRKQSFSHDALPQSTQRINCCSNSDPALADTSETAAELVLKNDLDADAQFKTPISFPRKRKLSELRDSSVPGKRIDLGERRNSTFADGSGLQTPASALDANQSGSSRLGQMTPASQLRLPSDPQPSNPERLSLDSLVVQYLKHQHRQCLAPITTLPPVSLLHPHVCPEPKRLLEAPLNMTGRLGTRELQSFYSGVHGNRRDRQFVFSRFKSWRSFRDETALFTCIALLGGTNHIAVGSHAGEIKIFEASSGSMLESVSGHQAPVTLVQPYVSRDTQLLLSSSSSDVQLWDASSITGGPRHSFDGCKAAKFSNSGLQFAALSCEASRKDVLLYDVQTCSPCQKLTDTVTSSRSNPYSLVHFSPCDTLILWNGVLWDRRIPEKVRRFDQFTDYGGGGFHPSRNEVIINSEIWDMRTFKLLRSVPSLDQTAITFNSRGDVIYAMLRRNIEDVMSAVHTRRVKHPLFAAFRTLDAINYSDIATIPVDRCLLDFATEPTDSFLGLITMEDQEDMFSSARMYEIGRRRPTDDDSDPDDDDETEDEDEDDEEEDDLDRILGLAGDNSDSGDDDLSSEDNEDSVSDFDEEADILIDGDFMEELIEGENEDDGNGEDEDDDDDGEMQDFMSSGEEDDYRDNIRSS
partner: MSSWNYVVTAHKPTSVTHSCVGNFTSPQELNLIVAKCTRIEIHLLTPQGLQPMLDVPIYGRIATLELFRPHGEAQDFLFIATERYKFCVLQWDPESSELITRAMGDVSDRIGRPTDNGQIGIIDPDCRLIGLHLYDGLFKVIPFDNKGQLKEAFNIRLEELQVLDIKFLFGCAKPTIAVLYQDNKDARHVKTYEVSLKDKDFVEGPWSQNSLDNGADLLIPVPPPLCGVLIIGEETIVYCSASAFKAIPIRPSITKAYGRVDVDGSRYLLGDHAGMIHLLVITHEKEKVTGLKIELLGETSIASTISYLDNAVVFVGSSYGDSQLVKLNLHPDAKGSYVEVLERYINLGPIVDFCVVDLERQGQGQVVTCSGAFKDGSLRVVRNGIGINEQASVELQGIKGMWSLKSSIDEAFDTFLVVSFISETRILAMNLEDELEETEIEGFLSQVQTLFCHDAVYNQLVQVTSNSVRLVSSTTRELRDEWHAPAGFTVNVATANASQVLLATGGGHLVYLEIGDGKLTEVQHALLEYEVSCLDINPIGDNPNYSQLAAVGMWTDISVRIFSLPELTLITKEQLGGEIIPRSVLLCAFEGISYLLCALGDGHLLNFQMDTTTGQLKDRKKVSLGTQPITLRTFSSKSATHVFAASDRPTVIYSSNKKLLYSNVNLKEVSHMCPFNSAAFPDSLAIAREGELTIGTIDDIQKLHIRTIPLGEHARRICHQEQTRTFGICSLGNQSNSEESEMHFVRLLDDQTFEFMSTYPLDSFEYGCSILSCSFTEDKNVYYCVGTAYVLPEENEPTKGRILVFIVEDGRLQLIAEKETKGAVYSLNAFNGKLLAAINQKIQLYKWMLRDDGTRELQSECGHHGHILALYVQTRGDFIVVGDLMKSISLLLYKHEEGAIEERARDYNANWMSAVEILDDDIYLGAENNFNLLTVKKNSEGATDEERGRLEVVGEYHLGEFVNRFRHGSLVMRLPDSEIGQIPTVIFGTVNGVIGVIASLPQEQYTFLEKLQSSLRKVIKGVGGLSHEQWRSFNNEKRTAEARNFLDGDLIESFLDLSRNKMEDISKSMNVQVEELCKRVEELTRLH

Variants of: B1
Conditions: with ddb1a_arath DDB1A

Variant	effect of a mutation on the interaction
D1622A;R1624A	decreasing interaction
D1622A;R1624A;D1658A;R1660A	decreasing interaction
D1658A;R1660A	decreasing interaction
